From paper PMC4319758

Legend:
[1] = molecular target: Sec61 channel with Sec61p of sec61-302 (D168G, S179P, F263L, S353C), in reconstituted proteoliposomes (S. cerevisiae | S. cerevisiae (endogenous in the yeast membranes)) (UniProt P32915); test: flotation of proteoliposomes in a sucrose gradient; 20 eq of reconstituted proteoliposomes with 2 pmol 19S RP in 30 µl binding buffer (20 mM Hepes-KOH pH 7.2, 250 mM sucrose, 120 mM KOAc, 5 mM Mg(OAc)2, 5 mM ATP, 1 mM DTT), 20 min on ice then 10 min at RT; flotation 55,000 rpm, 4°C, 1 hr; 9 fractions, 19S RP detected by anti-FLAG blot
[2] = molecular target: Sec61 channel, wild type (Sec61p, Sbh1p, Sss1p), in reconstituted proteoliposomes (S. cerevisiae | S. cerevisiae (endogenous in the yeast membranes)) (UniProt P32915); test: as above
[3] = molecular target: Sec61 channel with Sec61p S353C, in reconstituted proteoliposomes (S. cerevisiae | S. cerevisiae (endogenous in the yeast membranes)) (UniProt P32915)
[4] = molecular target: Sec61 channel with Sec61p S179P, in reconstituted proteoliposomes (S. cerevisiae | S. cerevisiae (endogenous in the yeast membranes)) (UniProt P32915)
[5] = molecular target: Sec61 channel with Sec61p of sec61-302 (D168G, S179P, F263L, S353C), in reconstituted proteoliposomes (S. cerevisiae | S. cerevisiae (endogenous in the yeast membranes)) (UniProt P32915)
[6] = molecular target: Sec61 channel, wild type (Sec61p, Sbh1p, Sss1p), in reconstituted proteoliposomes (S. cerevisiae | S. cerevisiae (endogenous in the yeast membranes)) (UniProt P32915)
[7] = molecular target: Sec61 channel with Sec61p S179P/S353C, in reconstituted proteoliposomes (S. cerevisiae | S. cerevisiae (endogenous in the yeast membranes)) (UniProt P32915)

percent of 19S RP bound [1]: 20%
percent of 19S RP bound [2]: 40%
t1/2 of Δgpαf export and degradation from microsomes in the cell-free ERAD assay with 1 mg/ml cytosol (limiting 19S RP) [3]: 45 min
t1/2 of Δgpαf export and degradation from microsomes in the cell-free ERAD assay with 1 mg/ml cytosol (limiting 19S RP); wildtype kinetics [4]: 20 min
t1/2 of Δgpαf export and degradation from microsomes in the cell-free ERAD assay with 1 mg/ml cytosol (limiting 19S RP) [5]: 45 min
t1/2 of Δgpαf export and degradation from microsomes in the cell-free ERAD assay with 1 mg/ml cytosol (limiting 19S RP) [6]: 20 min
t1/2 of Δgpαf export and degradation from microsomes in the cell-free ERAD assay with 1 mg/ml cytosol (limiting 19S RP) [7]: 45 min
Substance: proteasome 19S regulatory particle (RP), FLAG-tagged on Rpt1 (from UniProt P33299 1-467) (complex)
